Results from PMC8093829.
One block for each binder: values may come before it.

How the values were obtained:
[1] = molecular target: T1, recombinant L-asparaginase refolded from E. coli inclusion bodies, P00805; assay: SEC; Superdex 200 PG 16/600, equilibrated with 20 mM Tris-HCl, 10% (v/v) glycerol, pH 8.5, eluted in 50 mM Tris-HCl, 0.5 ml/min; DEAE-purified, concentrated refolded L-asparaginase; conditions: remark: other sources report otherwise
T1 chain: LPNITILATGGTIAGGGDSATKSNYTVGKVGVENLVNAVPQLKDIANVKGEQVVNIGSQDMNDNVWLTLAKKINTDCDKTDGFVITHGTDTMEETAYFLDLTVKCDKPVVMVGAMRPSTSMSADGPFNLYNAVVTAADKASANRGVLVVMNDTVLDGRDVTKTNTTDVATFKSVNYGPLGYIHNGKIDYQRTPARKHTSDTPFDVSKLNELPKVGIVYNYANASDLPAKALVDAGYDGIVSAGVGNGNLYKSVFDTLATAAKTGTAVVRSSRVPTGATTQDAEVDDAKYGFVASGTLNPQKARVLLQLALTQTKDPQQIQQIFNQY

[2] = molecular target: T2, commercial L-asparaginase 5,000 IU/ml, Bionase 5K, P00805; assay: SEC; HPLC, TSK gel G3000SWxl, 20 mM Tris-HCl and 100 mM NaCl; commercial L-asparaginase concentrated to 2 mg/ml; conditions: remark: other sources report otherwise
T2 chain: T1 chain

- stoichiometry N [1]: 4
B1: recombinant L-asparaginase refolded from E. coli inclusion bodies, P00805 23-348 (enzyme)
chain: T1 chain

- stoichiometry N [2]: 4
- tetrameric population (%) [2]: 81.4%
B2: commercial L-asparaginase 5,000 IU/ml, Bionase 5K, P00805 23-348 (enzyme)
chain: T1 chain
